Results: paper PMC5880214

T1: AtPOT1a (Arabidopsis thaliana, UniProt Q56Y52 1-467)
T1 sequence: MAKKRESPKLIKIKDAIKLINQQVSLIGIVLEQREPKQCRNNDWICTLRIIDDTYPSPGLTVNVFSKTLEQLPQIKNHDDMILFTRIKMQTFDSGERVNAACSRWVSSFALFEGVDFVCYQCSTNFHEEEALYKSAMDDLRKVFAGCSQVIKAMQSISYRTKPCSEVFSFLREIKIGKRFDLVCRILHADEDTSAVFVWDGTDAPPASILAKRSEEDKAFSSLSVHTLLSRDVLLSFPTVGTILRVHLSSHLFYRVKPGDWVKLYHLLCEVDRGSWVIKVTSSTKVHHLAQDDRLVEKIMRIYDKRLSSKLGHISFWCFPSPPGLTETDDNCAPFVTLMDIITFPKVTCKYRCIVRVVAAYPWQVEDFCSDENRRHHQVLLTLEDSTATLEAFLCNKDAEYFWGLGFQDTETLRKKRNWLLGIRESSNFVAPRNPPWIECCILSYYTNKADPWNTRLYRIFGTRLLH

T2: AtPOT1b (Arabidopsis thaliana, UniProt Q6NKX5 1-454)
T2 sequence: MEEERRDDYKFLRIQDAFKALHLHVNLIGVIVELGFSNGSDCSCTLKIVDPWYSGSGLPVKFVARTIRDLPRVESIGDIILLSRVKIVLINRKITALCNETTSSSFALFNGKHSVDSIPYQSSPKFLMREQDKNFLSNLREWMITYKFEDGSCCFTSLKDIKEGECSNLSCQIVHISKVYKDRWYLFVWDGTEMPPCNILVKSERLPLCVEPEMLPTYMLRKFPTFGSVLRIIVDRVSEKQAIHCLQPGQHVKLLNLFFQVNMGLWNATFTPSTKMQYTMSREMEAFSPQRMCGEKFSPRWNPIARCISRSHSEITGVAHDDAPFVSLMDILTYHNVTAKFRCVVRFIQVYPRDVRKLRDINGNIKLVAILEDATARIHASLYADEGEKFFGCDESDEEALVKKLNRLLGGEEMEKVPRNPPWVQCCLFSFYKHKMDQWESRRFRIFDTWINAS

T3: mPOT1a_N (OB-fold domains of mouse POT1a) (mouse, UniProt Q91WC1 1-299)
T3 sequence: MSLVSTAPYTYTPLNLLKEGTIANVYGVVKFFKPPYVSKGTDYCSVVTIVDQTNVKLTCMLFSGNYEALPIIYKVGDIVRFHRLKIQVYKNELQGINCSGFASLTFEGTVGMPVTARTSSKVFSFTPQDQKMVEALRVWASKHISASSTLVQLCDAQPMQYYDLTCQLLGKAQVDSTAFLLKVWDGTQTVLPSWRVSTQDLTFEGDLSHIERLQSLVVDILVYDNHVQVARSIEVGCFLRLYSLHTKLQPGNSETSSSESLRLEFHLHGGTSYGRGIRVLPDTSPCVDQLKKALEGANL

T4: BoPOT1a (Brassica oleracea (cauliflower, …, UniProt B7T1J7 1-456))
T4 sequence: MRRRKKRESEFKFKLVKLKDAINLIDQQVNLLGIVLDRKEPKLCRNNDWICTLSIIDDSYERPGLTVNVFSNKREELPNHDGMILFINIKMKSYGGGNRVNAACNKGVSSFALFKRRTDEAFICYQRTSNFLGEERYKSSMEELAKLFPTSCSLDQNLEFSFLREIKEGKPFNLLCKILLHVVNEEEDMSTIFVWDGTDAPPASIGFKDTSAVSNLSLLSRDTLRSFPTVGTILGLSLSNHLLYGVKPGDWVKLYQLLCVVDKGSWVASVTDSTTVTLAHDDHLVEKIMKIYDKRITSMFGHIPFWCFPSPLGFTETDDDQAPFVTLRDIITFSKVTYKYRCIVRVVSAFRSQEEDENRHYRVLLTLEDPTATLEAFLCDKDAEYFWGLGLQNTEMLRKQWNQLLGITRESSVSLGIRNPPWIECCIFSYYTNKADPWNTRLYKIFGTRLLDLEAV

T5: BoPOT1b (Brassica oleracea (cauliflower, …, UniProt B7T1J8 1-450))
T5 sequence: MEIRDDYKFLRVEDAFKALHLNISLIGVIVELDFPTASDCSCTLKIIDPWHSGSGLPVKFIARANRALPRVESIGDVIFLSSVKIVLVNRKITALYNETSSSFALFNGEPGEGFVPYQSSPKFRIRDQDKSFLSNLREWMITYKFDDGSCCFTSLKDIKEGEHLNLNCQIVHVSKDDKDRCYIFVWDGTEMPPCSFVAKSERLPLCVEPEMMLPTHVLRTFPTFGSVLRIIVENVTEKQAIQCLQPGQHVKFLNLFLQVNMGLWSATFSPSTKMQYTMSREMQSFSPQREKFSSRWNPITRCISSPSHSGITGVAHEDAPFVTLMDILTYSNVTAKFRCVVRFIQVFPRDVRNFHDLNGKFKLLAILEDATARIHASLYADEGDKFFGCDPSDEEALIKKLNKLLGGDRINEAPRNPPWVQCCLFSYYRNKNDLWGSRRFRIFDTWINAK

T6: AlPOT1b (Arabidopsis lyrata, UniProt B7T1J2 1-450)
T6 sequence: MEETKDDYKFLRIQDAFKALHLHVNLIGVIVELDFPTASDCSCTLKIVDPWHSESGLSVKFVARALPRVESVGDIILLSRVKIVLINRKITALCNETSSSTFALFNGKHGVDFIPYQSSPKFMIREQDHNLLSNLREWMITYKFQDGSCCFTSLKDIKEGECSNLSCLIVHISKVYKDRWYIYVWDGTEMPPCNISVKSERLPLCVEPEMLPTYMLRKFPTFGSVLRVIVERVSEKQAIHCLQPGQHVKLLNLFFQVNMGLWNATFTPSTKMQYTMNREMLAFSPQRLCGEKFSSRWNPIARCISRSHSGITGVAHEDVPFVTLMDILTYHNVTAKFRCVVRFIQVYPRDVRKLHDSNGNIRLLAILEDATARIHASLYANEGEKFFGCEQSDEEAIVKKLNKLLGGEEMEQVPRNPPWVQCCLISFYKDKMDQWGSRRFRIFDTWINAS

T7: AtPOT1b_N (Arabidopsis thaliana, UniProt Q6NKX5 1-300)
T7 sequence: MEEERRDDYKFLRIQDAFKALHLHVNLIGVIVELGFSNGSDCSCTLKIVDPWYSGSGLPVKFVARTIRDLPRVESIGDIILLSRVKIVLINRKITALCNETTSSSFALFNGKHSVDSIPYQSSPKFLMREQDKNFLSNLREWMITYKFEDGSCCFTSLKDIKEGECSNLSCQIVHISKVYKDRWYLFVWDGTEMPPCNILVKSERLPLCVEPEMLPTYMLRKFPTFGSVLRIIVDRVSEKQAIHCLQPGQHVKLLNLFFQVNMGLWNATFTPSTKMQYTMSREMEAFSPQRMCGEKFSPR

T8: AtPOT1a_N (Arabidopsis thaliana, UniProt Q56Y52 1-300)
T8 sequence: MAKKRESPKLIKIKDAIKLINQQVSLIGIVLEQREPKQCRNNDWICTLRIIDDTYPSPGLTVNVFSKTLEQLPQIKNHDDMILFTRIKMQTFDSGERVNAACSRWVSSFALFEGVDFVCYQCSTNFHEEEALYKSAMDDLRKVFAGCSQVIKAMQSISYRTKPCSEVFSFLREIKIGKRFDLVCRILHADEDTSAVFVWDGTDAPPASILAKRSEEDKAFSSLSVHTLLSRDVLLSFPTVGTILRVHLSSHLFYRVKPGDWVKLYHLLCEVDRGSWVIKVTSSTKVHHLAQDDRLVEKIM

T9: AlPOT1a (Arabidopsis lyrata, UniProt B7T1J1 1-467)
T9 sequence: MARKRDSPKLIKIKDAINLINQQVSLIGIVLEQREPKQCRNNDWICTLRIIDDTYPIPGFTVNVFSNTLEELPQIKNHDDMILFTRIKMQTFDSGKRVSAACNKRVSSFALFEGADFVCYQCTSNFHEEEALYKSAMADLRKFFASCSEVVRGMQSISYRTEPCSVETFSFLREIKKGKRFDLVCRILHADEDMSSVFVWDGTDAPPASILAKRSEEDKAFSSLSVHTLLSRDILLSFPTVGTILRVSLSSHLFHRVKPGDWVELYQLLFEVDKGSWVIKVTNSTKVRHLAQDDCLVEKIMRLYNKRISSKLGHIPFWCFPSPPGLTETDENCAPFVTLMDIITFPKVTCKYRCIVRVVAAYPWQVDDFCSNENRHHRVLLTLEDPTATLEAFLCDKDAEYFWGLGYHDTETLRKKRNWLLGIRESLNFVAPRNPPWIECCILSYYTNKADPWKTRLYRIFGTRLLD


Columns and labels:
Test in all cases: EMSA
[1] = target: T1, AtPOT1a
[2] = target: T2, AtPOT1b
[3] = target: T3, mPOT1a_N (OB-fold domains of mouse …)
[4] = target: T4, BoPOT1a
[5] = target: T5, BoPOT1b
[6] = target: T6, AlPOT1b
[7] = target: T7, AtPOT1b_N
[8] = target: T8, AtPOT1a_N
[9] = target: T9, AlPOT1a

Row | Binder | binding result [1] | binding result [2] | binding result [3] | binding result [4] | binding result [5] | binding result [6] | binding result [7] | binding result [8] | binding result [9]
1 | CCCTAAACCCTAAACCCTAAACCCTAAACCCTAAA (ssDNA) [C-rich plant telomere repeat, five copies] | no binding | no binding | – | – | – | – | – | – | –
2 | GGTTAGGGTTAG (ssDNA) [(GGTTAG)2 vertebrate telomere repeat] | – | – | binds | – | – | – | – | – | –
3 | TTTAGGGTTTAGGG (ssDNA) [(TTTAGGG)2] | no binding | no binding | – | no binding | no binding | no binding | no binding | no binding | no binding
4 | TTTAGGGTTTAGGGTTTAGGGTTTAGGGTTTAGGG (ssDNA) [(TTTAGGG)5] | no binding | no binding | – | no binding | no binding | no binding | no binding | no binding | no binding
